In patent US7060266:

Tests used:
[1] = molecular target: natural brain APP prepared from human hippocampus, P05067
[2] = molecular target: natural brain APP pretreated with chondroitinase ABC, P05067
[3] = molecular target: synthetic Aβ 1-40, P05067
[4] = molecular target: synthetic Aβ 1-42, P05067

| Protein | proteolysis of natural brain APP (Western blot with anti Aβ 1/14 antibody) [1] | proteolysis of chondroitinase ABC-pretreated brain APP [2] | digestion of synthetic Aβ 1-40 (Western blot) [3] | digestion of synthetic Aβ 1-42 (Western blot) [4] | proteolytic activity of native-PAGE fractions for natural brain APP [1] |
| --- | --- | --- | --- | --- | --- |
| human brain carboxypeptidase B, 40 kDa protease (prepro-HBCPB) (protein) ASASYYEQYHSLNEIYSWIEFITERHPDMLTKIHIGSSFEKYPLYVLKVSGKEQTAKNAIWIDCGIHAREWISPAFCLWFIGHNRMWRKNRSFYANNHCIGTDLNSNFVSKHWCEEGASSSSCSETYCGLYPESEPEVKAVASFLRRNINQIKAYISMHSYSQHIVFPYSYTRSKSKDHEELSLVASEAVRAIDKTSKNTRYTHGHGSETLYLAPGGGDDWIYDLGIKYSFTSNPPVEKLLPLSLK | the 40 kDa protein degraded natural brain APP, generating a 5.5 kDa fragment as the major component of the 3 to 11 kDa Aβ-containing peptides | it was shown that the reaction is almost completely inhibited | low-molecular weight peptides formed in a dose-dependent manner | low-molecular weight peptides formed in a dose-dependent manner |  |
| human brain carboxypeptidase B, 30 kDa mature form (protein) ASASYYEQYHSLNEIYSWIEFITERHPDMLTKIHIGSSFEKYPLYVLKVSGKEQTAKNAIWIDCGIHAREWISPAFCLWFIGHNRMWRKNRSFYANNHCIGTDLNRNFASKHWCEEGASSSSCSETYCGLYPESEPEVKAVASFLRRNINQIKAYISMHSYSQHIVFPYSYTRSKSKDHEELSLVASEAVRAIEKTSKNTRYTHGHGSETLYLAPGGGDDWIYDLGIKYSFTSNPPVEKLLPLSLK |  |  |  |  | fraction 19 with a molecular mass of about 40 kDa and fraction 11 with a molecular mass of about 30 kDa had similar proteolytic activities |
